Measured values: publication PMC7506556, “Structure and function of bacteriophage CBA120 ORF211 (TSP2), the determinant of phage specificity towards E. coli O157:H7” (Scientific Reports, 2020)

How the values were obtained:
[1] = target: the molecule itself; assay: crystal structure; sitting drops, vapor diffusion, room temperature, 0.8 M ammonium sulfate, 0.1 M HEPES pH 7.0; 1.9 Å; two homotrimers in the asymmetric unit
[2] = target: the molecule itself; assay: not stated; purified TSP2 site-directed mutants; how the trimeric state was shown is not told
[3] = target: the molecule itself; assay: not stated; purified TSP1 site-directed mutants; how the trimeric state was shown is not told

Row | Protein | stoichiometry N [3] | further results
1 | bacteriophage CBA120 ORF211 (TSP2), wild type (enzyme, UniProt G3M190 1-921, looked up, 921-residue polypeptide chain; gene codon optimized for E. coli; residues 1-168 have no electron density in the crystal; Calculated monomer mass 99,054 Da with the 6X-His tag; also called tailspike protein 2; wild-type TSP2; source: E. coli Rosetta-gami 2 (pBAD24), purified (Ni-NTA); not shown: 6X-His, C-terminal, kept) MTRNVEELFGGVITAPHQIPFTYKSNVGGETFLSLPFYPVTGVVTINGGMQVPLDNFEIEGNTLNLGRALSKGDVVYCLFDKILSPEDTAKGIRIYKFQAVGGETEFTPDFTSYGVQSLYIGGEYKTPEIEYSYDSTTGKVSLQTALSAGVWVVAEMSVKQPNISPAFDRSIQEIARSANVKDSEVIVSTDTISLLDGKKVVYDIATQTSYGLPTIPDGSVISSVSAGKLNYNPGDVQVDLLPLEDSFINVINTLGRNDGAKYIGECHSVADLRNTEPTMDGQRIILKQHTAGTLLGGGVFRALIDGTGKTDNNGTVIKTVGGAAWLRVNADRVNPFMFGALGGSNDDTIPVQSCVDSGKATQLTDAHYVSNIQLKYNTSSIYGSGLHYSRLHQLPSATGNCITIKDTCSLIVLDAFGVYGTGAQQGTSFTAGTTGIYVETPSGLSADYPFHTTADPRRDLCISKVHIAGFDEYGLNIDSGNFSVTTDSLLVNHINQVGVRCATTDWTWTNIQVNTCGKQCLVLDGCGNGRIIGGKFIWANWQPYGTVGQFPGITINNSQNMVINGIEVQDCGGNGIEISESYSISMNGLNTNRNGINANNTFYNIVFNKSDAVINGFVGLNYAANSGSGANSSAGNFQFLSNDCSVTINGVVETGYMGINFIGDNNIINPTNSDLSINGLVNYSKTGLQTMNETPTFDGVSTTPVYVSVPSSVGQVNGLRLSQANKDKLLYSRTAGPEGITMAAVIVPTISGAEVFNFMAIGSGFSDTSNSLHLQLVIDASGKQTIALLLGGDGTTQILSGDLPNDLKLQSGVPYHIAIGAKPGYFWWSILNIQTGKRIRRSFRGAYLAVPFNSIFGLTSSLTFFSDSNAGGDACSGVGAKVYVGMFSSENDYVASRYYNLINPVDPTKLISYRILDSSI | – | stoichiometry N [1]: 3
2 | TSP2 D506N:D571N:Y623A mutant (enzyme, UniProt G3M190 1-921, looked up, Made by Q5 site-directed mutagenesis of the TSP2 plasmid; source: E. coli BL21(DE3), purified similar to wild type TSPs) MTRNVEELFGGVITAPHQIPFTYKSNVGGETFLSLPFYPVTGVVTINGGMQVPLDNFEIEGNTLNLGRALSKGDVVYCLFDKILSPEDTAKGIRIYKFQAVGGETEFTPDFTSYGVQSLYIGGEYKTPEIEYSYDSTTGKVSLQTALSAGVWVVAEMSVKQPNISPAFDRSIQEIARSANVKDSEVIVSTDTISLLDGKKVVYDIATQTSYGLPTIPDGSVISSVSAGKLNYNPGDVQVDLLPLEDSFINVINTLGRNDGAKYIGECHSVADLRNTEPTMDGQRIILKQHTAGTLLGGGVFRALIDGTGKTDNNGTVIKTVGGAAWLRVNADRVNPFMFGALGGSNDDTIPVQSCVDSGKATQLTDAHYVSNIQLKYNTSSIYGSGLHYSRLHQLPSATGNCITIKDTCSLIVLDAFGVYGTGAQQGTSFTAGTTGIYVETPSGLSADYPFHTTADPRRDLCISKVHIAGFDEYGLNIDSGNFSVTTDSLLVNHINQVGVRCATTNWTWTNIQVNTCGKQCLVLDGCGNGRIIGGKFIWANWQPYGTVGQFPGITINNSQNMVINGIEVQNCGGNGIEISESYSISMNGLNTNRNGINANNTFYNIVFNKSDAVINGFVGLNAAANSGSGANSSAGNFQFLSNDCSVTINGVVETGYMGINFIGDNNIINPTNSDLSINGLVNYSKTGLQTMNETPTFDGVSTTPVYVSVPSSVGQVNGLRLSQANKDKLLYSRTAGPEGITMAAVIVPTISGAEVFNFMAIGSGFSDTSNSLHLQLVIDASGKQTIALLLGGDGTTQILSGDLPNDLKLQSGVPYHIAIGAKPGYFWWSILNIQTGKRIRRSFRGAYLAVPFNSIFGLTSSLTFFSDSNAGGDACSGVGAKVYVGMFSSENDYVASRYYNLINPVDPTKLISYRILDSSI | – | stoichiometry N [2]: 3
3 | E456A:E483A TSP1 (enzyme, source: E. coli BL21(DE3), purified similar to wild type TSPs) MNEMFSQGGKGSTGILTNKQAVARHFGVKQSEVVYFSVGVDLGGYKVIYDKETQRAYSLPVGIASGTTAVSLSTAAVLVHSAGSVDLGSLAVSREEYVTLPGSFDSGSTLNVKNELLTYTDGKYRWDGILPKTVAPGSTPASTGGVGLGAWISVGDASLRTQLANGDGSLIGIHPQGTLNNVLTVRTPEQYNAVGDGIADDTSKLKEMLSDINNVPETLPDAAAVNSYMEQVAVKIDLTKLYRFTETLYIPPGVSIEIPTSNFFTRECKQGLFYDPVDKNTAAISLMVYRKQPDGSYKLNKDVDYYPTGLDIDNGDAITCARKIDINNLNLITAPGVKVGVKWIGGAGCTTKGLSIGENTGSDITTARLPRVGLLQSASWGSIHENLRILYKTQGAVFIDSNGGAAVNNAYISRLGNTNGELEQAVYKPAGFTEVGDVAVTQFAGSEVKFNSPIIAQASFDFVHAGRDTDSYGLFMVDKPHIASSGGKKKHSFYLINTSSNVTLSGVGLSGQDPDLDSMYFLKNCPETARNVVRGQMPISGVKLVRGTGNYPTLVLDCTNMGSQFQFGEVGDIFYIKDVVGVKADTLYIDPVNGNNYNWGTNGTKPIRELTNIAKICQLFRCKSVYLNAGESVITSNTELPMVVFEGPGSLKANSGSSFLIKAGGTLSLIGLSGISTDGGHMFRVSTVEKVNIHTNCSVNAGAAYVVLSEVQGNIEYRQLFYSVNCSKYIGATAGQTIAGIMVKTATRPTGIDAAPVDGNVSLTYKIIES | 3 | –
4 | D313N:E456Q:E483Q TSP1 (enzyme, source: E. coli BL21(DE3), purified similar to wild type TSPs) MNEMFSQGGKGSTGILTNKQAVARHFGVKQSEVVYFSVGVDLGGYKVIYDKETQRAYSLPVGIASGTTAVSLSTAAVLVHSAGSVDLGSLAVSREEYVTLPGSFDSGSTLNVKNELLTYTDGKYRWDGILPKTVAPGSTPASTGGVGLGAWISVGDASLRTQLANGDGSLIGIHPQGTLNNVLTVRTPEQYNAVGDGIADDTSKLKEMLSDINNVPETLPDAAAVNSYMEQVAVKIDLTKLYRFTETLYIPPGVSIEIPTSNFFTRECKQGLFYDPVDKNTAAISLMVYRKQPDGSYKLNKDVDYYPTGLDINNGDAITCARKIDINNLNLITAPGVKVGVKWIGGAGCTTKGLSIGENTGSDITTARLPRVGLLQSASWGSIHENLRILYKTQGAVFIDSNGGAAVNNAYISRLGNTNGELEQAVYKPAGFTEVGDVAVTQFAGSEVKFNSPIIQQASFDFVHAGRDTDSYGLFMVDKPHIQSSGGKKKHSFYLINTSSNVTLSGVGLSGQDPDLDSMYFLKNCPETARNVVRGQMPISGVKLVRGTGNYPTLVLDCTNMGSQFQFGEVGDIFYIKDVVGVKADTLYIDPVNGNNYNWGTNGTKPIRELTNIAKICQLFRCKSVYLNAGESVITSNTELPMVVFEGPGSLKANSGSSFLIKAGGTLSLIGLSGISTDGGHMFRVSTVEKVNIHTNCSVNAGAAYVVLSEVQGNIEYRQLFYSVNCSKYIGATAGQTIAGIMVKTATRPTGIDAAPVDGNVSLTYKIIES | 3 | –
5 | E456Q:E483Q TSP1 (enzyme, source: E. coli BL21(DE3), purified similar to wild type TSPs) MNEMFSQGGKGSTGILTNKQAVARHFGVKQSEVVYFSVGVDLGGYKVIYDKETQRAYSLPVGIASGTTAVSLSTAAVLVHSAGSVDLGSLAVSREEYVTLPGSFDSGSTLNVKNELLTYTDGKYRWDGILPKTVAPGSTPASTGGVGLGAWISVGDASLRTQLANGDGSLIGIHPQGTLNNVLTVRTPEQYNAVGDGIADDTSKLKEMLSDINNVPETLPDAAAVNSYMEQVAVKIDLTKLYRFTETLYIPPGVSIEIPTSNFFTRECKQGLFYDPVDKNTAAISLMVYRKQPDGSYKLNKDVDYYPTGLDIDNGDAITCARKIDINNLNLITAPGVKVGVKWIGGAGCTTKGLSIGENTGSDITTARLPRVGLLQSASWGSIHENLRILYKTQGAVFIDSNGGAAVNNAYISRLGNTNGELEQAVYKPAGFTEVGDVAVTQFAGSEVKFNSPIIQQASFDFVHAGRDTDSYGLFMVDKPHIQSSGGKKKHSFYLINTSSNVTLSGVGLSGQDPDLDSMYFLKNCPETARNVVRGQMPISGVKLVRGTGNYPTLVLDCTNMGSQFQFGEVGDIFYIKDVVGVKADTLYIDPVNGNNYNWGTNGTKPIRELTNIAKICQLFRCKSVYLNAGESVITSNTELPMVVFEGPGSLKANSGSSFLIKAGGTLSLIGLSGISTDGGHMFRVSTVEKVNIHTNCSVNAGAAYVVLSEVQGNIEYRQLFYSVNCSKYIGATAGQTIAGIMVKTATRPTGIDAAPVDGNVSLTYKIIES | 3 | –
